Source: IntAct's records for PubMed 16319069

B1: 5-hydroxytryptamine receptor 2C (Homo sapiens), P28335 (parent)
chain: MVNLRNAVHSFLVHLIGLLVWQSDISVSPVAAIVTDIFNTSDGGRFKFPDGVQNWPALSIVIIIIMTIGGNILVIMAVSMEKKLHNATNYFLMSLAIADMLVGLLVMPLSLLAILYDYVWPLPRYLCPVWISLDVLFSTASIMHLCAISLDRYVAIRNPIEHSRFNSRTKAIMKIAIVWAISIGVSVPIPVIGLRDEEKVFVNNTTCVLNDPNFVLIGSFVAFFIPLTIMVITYCLTIYVLRRQALMLLHGHTEEPPGLSLDFLKCCKRNTAEEENSANPNQDQNARRRKKKERRPRGTMQAINNERKASKVLGIVFFVFLIMWCPFFITNILSVLCEKSCNQKLMEKLLNVFVWIGYVCSGINPLVYTLFNKIYRRAFSNYLRCNYKVEKKPPVRQIPRVAATALSGRELNVNIYRHTNEPVIEKASDNEPGIEMQVENLELPVNPSSVVSERISSV

Variants of: B1
Settings: with arrb2_mouse Arrb2, Q91YI4
Chain of arrb2_mouse Arrb2, Q91YI4 (Q91YI4 whole entry): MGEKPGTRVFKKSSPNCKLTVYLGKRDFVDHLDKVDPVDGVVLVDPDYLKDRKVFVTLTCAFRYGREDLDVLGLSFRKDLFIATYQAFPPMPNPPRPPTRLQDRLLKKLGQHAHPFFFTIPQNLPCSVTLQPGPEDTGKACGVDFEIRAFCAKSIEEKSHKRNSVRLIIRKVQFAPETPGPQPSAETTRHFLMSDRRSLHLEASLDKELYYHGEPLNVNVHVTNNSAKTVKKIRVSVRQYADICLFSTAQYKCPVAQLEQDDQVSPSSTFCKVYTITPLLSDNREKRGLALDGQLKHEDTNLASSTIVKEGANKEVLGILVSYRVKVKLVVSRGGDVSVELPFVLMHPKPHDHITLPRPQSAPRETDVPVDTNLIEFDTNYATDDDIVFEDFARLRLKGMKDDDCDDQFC
With MVNLRNAVHSFLVHLIGLLVWQSDISVSPVAAIVTDIFNTSDGGRFKFPDGVQNWPALSIVIIIIMTIGGNILVIMAVSMEKKLHNATNYFLMSLAIADMLVGLLVMPLSLLAILYDYVWPLPRYLCPVWISLDVLFSTASIMHLCAISLDRYVAIRNAIEHSRFNSRTKAIMKIAIVWAISIGVSVPIPVIGLRDEEKVFVNNTTCVLNDPNFVLIGSFVAFFIPLTIMVITYCLTIYVLRRQALMLLHGHTEEPPGLSLDFLKCCKRNTAEEENSANPNQDQNARRRKKKERRPRGTMQAINNERKASKVLGIVFFVFLIMWCPFFITNILSVLCEKSCNQKLMEKLLNVFVWIGYVCSGINPLVYTLFNKIYRRAFSNYLRCNYKVEKKPPVRQIPRVAATALSGRELNVNIYRHTNEPVIEKASDNEPGIEMQVENLELPVNPSSVVSERISSV [P159A] the “effect of a mutation on the interaction” value was “decreasing interaction”.
